Source: US20030149244A1 (Genentech, published 2003)

What was measured:
[1] = biological target: membrane IgE on U266B1 cells (human, UniProt P01854 1-546); assay: FACS on membrane IgE+ U266B1 cells
[2] = biological target: T1, human IgE (human, UniProt P01854 1-546, FITC-, biotin- or 125I-labelled in some assays); assay: FACS, blocking of FITC-IgE binding to FcεRII (CD23) on IM9 cells
[3] = biological target: T1, human IgE; assay: soluble receptor ELISA, ratio of 50% inhibition concentrations
[4] = biological target: T1, human IgE; assay: as above; remark: listed apart in the source

T1 sequence (P01854 whole entry): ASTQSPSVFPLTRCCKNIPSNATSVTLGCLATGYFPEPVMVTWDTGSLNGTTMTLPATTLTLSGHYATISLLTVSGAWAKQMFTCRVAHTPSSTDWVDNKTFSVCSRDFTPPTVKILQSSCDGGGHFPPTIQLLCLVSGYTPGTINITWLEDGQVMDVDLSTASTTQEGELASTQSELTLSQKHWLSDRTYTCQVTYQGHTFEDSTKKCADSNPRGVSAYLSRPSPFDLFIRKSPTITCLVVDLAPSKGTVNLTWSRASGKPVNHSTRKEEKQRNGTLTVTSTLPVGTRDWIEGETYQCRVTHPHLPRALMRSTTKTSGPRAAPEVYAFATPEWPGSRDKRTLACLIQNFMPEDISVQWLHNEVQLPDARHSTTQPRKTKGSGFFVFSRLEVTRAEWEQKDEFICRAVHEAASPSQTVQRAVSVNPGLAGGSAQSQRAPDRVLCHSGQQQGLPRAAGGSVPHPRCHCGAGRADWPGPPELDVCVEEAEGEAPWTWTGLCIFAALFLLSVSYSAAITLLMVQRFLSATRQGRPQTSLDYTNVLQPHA
Chain of membrane IgE on U266B1 cells (P01854 whole entry, one chain of several): as the sequence (P01854 whole entry) above

EC50 [1] [µg/mL]	EC50 [2] [µg/mL]	ratio F(ab)-X / F(ab)-2 [3]	ratio F(ab)-X / MaE11 [3]	ratio Variant X / IgG1-2 [4]	ratio Variant X / MaE11 [4]	Binder
1	0.7					MaE13 (antibody, V domains shown) VH: DVQLQESGPGLVKPSQSLSLTCTVTGYTITSDNAWNWIRQFPGNKLEWMGYINHSGTTSYNPSLKSRISITRDTSKNQFFLQLNSVTTEDTATYYCAWVVAYAMDYWGQGTSVTVSS VL: DIVMTQSQKFMSTSVGDRVSVTCKASQNVSSNVAWYQQKPGQSPKALIYSASYRYSGVPDRFTGSGSGTDFTLTISNVQSEDLAEYFCQQYYTYPLYTFGGGTKLEIK
6	0.6					MaE15 (antibody, V domains shown) VH: DVQHQESEPDLVKPSQSLSLTCTVTGYSITSGYNRHWIRQFPGNKLEWMGYIHYSGSTNYNPSLKRRISITRDTSKNQFFLQLNSVTTEDTATYYCARGSIYYYGSRYRYFDVWGAGTTVTVSS VL: DIQLTQSPASLAVSLGQRATISCKASQSVDYDGDSYMNWYQQKPGQPPKLLIYAASNLESGIPARFSGSGSGTDFTLNIHPVEEEDAATYYCQQSNEDPFTFGAGT
		0.03	1	0.06	1	MaE11 (antibody, mouse IgG1, V domains shown, murine IgG1; also called murine MaE11; MeE11) VH: DVQLQESGPGLVKPSQSLSLACSVTGYSITSGYSWNWIRQFPGNKLEWMGSITYDGSSNYNPSLKNRISVTRDTSQNQFFLKLNSATAEDTATYYCARGSHYFGHWHFAVWGAGTTVTVSS VL: DIQLTQSPASLAVSLGQRATISCKASQSVDYDGDSYMNWYQQKPGQPPILLIYAASYLGSEIPARFSGSGSGTDFTLNIHPVEEEDAATFYCQQSHEDPYTFGAGTKLEIK
